Columns and labels:
[1] = molecular target: T1, GST-NP.d9 (NP.d3, NPAC residues 152-252, with deletion of amino acids 214-222)
T1 chain: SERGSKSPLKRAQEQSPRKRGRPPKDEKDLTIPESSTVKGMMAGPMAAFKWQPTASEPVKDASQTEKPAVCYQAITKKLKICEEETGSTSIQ

[2] = molecular target: T2, GST-NP.d5 (NPAC residues 262-553, dehydrogenase domain)
T2 chain: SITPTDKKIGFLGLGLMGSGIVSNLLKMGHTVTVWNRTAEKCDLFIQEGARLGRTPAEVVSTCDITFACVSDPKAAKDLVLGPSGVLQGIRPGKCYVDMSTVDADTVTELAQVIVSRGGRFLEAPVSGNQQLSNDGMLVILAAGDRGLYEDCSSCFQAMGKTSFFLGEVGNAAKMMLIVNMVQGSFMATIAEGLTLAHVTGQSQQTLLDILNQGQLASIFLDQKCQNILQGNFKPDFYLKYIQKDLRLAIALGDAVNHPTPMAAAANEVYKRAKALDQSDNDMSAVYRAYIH

[3] = molecular target: T3, GST-NP.d2 (NPAC residues 1-252)
T3 chain: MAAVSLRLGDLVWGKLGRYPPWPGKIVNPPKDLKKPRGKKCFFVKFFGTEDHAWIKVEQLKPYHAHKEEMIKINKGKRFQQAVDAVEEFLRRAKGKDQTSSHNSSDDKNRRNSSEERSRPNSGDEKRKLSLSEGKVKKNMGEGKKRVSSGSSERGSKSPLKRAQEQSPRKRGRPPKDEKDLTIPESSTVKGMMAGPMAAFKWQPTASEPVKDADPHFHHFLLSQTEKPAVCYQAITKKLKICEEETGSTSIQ

[4] = molecular target: T4, GST-NP.d1 (NPAC residues 1-150, PWWP domain)
T4 chain: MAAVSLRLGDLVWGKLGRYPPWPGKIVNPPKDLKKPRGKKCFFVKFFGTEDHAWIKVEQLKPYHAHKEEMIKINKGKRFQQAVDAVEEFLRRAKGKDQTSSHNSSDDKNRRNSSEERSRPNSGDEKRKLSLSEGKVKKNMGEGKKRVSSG

[5] = molecular target: T5, GST-NP.d6 (NPAC with deletion of the linker region, residues 152-252)
T5 chain: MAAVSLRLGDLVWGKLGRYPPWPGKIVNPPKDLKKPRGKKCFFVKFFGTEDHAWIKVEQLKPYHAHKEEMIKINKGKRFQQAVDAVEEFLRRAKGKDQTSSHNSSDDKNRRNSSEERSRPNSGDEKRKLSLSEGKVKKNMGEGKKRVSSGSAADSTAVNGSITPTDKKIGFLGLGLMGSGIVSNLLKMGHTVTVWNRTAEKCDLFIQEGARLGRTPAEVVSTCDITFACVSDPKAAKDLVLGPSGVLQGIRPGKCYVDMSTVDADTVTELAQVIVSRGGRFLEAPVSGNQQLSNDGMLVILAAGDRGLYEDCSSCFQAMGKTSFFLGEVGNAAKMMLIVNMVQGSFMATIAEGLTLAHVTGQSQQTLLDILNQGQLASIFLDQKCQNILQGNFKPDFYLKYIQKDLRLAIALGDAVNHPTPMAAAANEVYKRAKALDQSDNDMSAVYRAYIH

[6] = molecular target: T6, GST-NP.d7 (NPAC residues 152-186, containing the AT hook motif)
T6 chain: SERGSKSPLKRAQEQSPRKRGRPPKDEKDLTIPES

[7] = molecular target: T7, GST-NP.d4 (NPAC residues 152-553)
T7 chain: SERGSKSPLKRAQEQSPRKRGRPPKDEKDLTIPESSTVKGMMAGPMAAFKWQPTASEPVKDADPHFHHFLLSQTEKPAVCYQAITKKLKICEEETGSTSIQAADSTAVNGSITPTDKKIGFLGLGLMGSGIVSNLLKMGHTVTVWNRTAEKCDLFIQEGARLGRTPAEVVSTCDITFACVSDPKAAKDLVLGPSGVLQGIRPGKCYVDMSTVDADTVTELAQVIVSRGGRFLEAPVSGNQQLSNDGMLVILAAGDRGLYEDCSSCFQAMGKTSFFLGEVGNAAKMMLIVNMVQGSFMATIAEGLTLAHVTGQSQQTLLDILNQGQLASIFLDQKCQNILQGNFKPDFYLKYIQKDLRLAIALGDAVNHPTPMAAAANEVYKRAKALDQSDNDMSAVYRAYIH

[8] = molecular target: T8, GST-NP.d3 (NPAC residues 152-252, linker region)
T8 chain: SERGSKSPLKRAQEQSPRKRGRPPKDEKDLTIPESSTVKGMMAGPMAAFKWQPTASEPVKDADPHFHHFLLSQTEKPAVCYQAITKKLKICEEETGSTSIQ

[9] = molecular target: T9, GST-NP.d8 (NPAC residues 188-252)
T9 chain: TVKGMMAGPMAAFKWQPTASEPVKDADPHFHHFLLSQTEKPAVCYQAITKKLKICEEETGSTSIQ

B1: Recombinant 6x his tagged full-length LSD2 (protein)
chain: HHHHHHMATPRGRTKKKASFDHSPDSLPLRSSGRQAKKKATETTDEDEDGGSEKKYRKCEKAGCTATCPVCFASASERCAKNGYTSRWYHLSCGEHFCNECFDHYYRSHKDGYDKYTTWKKIWTSNGKTEPSPKAFMADQQLPYWVQCTKPECRKWRQLTKEIQLTPQIAKTYRCGMKPNTAIKPETSDHCSLPEDLRVLEVSNHWWYSMLILPPLLKDSVAAPLLSAYYPDCVGMSPSCTSTNRAAATGNASPGKLEHSKAALSVHVPGMNRYFQPFYQPNECGKALCVRPDVMELDELYEFPEYSRDPTMYLALRNLILALWYTNCKEALTPQKCIPHIIVRGLVRIRCVQEVERILYFMTRKGLINTGVLSVGADQYLLPKDYHNKSVIIIGAGPAGLAAARQLHNFGIKVTVLEAKDRIGGRVWDDKSFKGVTVGRGAQIVNGCINNPVALMCEQLGISMHKFGERCDLIQEGGRITDPTIDKRMDFHFNALLDVVSEWRKDKTQLQDVPLGEKIEEIYKAFIKESGIQFSELEGQVLQFHLSNLEYACGSNLHQVSARSWDHNEFFAQFAGDHTLLTPGYSVIIEKLAEGLDIQLKSPVQCIDYSGDEVQVTTTDGTGYSAQKVLVTVPLALLQKGAIQFNPPLSEKKMKAINSLGAGIIEKIALQFPYRFWDSKVQGADFFGHVPPSASKRGLFAVFYDMDPQKKHSVLMSVIAGEAVASVRTLDDKQVLQQCMATLRELFKEQEVPDPTKYFVTRWSTDPWIQMAYSFVKTGGSGEAYDIIAEDIQGTVFFAGEATNRHFPQTVTGAYLSGVREASKIAAF
In the case of B1, the “LSD2 histone demethylase activity on nucleosomal substrates” value (“LSD2 histone demethylase activity” for short) [1] is reported as “NP.d8, but not NP.d7 or NP.d9, significantly enhances LSD2 histone demethylase activity on nucleosomal substrates”, the “LSD2 activity on nucleosome substrates (nucleosome demethylation assay, immunoblot)” value (from here on “LSD2 activity on nucleosome substrates”) [2] is reported as “Neither the PWWP domain (SEQ ID NO: 63) (NP.d1, residues 1-150) nor the dehydrogenase domain (NP.d5, residues 262-553) stimulated LSD2” and the “LSD2 activity on nucleosome substrates” value [3] is reported as “significantly enhance LSD2 demethylase activity”. For the same protein, the “LSD2 activity on nucleosome substrates” value [4] was “Neither the PWWP domain (SEQ ID NO: 63) (NP.d1, residues 1-150) nor the dehydrogenase domain (NP.d5, residues 262-553) stimulated LSD2”, the “LSD2 activity on nucleosome substrates” value [5] was “deletion of the linker region (residues 152-252) abolishes cofactor activity (NP.d6, lane 10)” and the “LSD2 histone demethylase activity” value [6] was “NP.d8, but not NP.d7 or NP.d9, significantly enhances LSD2 histone demethylase activity on nucleosomal substrates”. For the same protein, the “LSD2 activity on nucleosome substrates” value [7] was “significantly enhance LSD2 demethylase activity”, the “LSD2 activity on nucleosome substrates” value [8] was “significantly enhance LSD2 demethylase activity” and the “LSD2 histone demethylase activity” value [9] was “NP.d8, but not NP.d7 or NP.d9, significantly enhances LSD2 histone demethylase activity on nucleosomal substrates”.

Reference: patent US20150329644
